Reference: the RNAGym collection of RNA variant scans (doi:10.7554/elife.80360)

B1: Hammerhead Ribozyme (parent)
chain: ACCGGAUGUGCUUUCCGGUCUGAUGAGUCCGUGAGGACGAAACAG

Variants of: B1
Test: self-cleavage, relative activity (ratio to wild type); higher = more cleavage; co-transcriptional

Variant | self-cleavage
A6G A26C | 0.396
C30G A41C | 0.368
G10C A37U | 0.576
U13C U28G | 0.935
G27U U28A | 0.552
C16G G31A | 1.16
U28G C29G | 0.547
U13A G27A | 0.873
G27C G36C | 0.257
C20U A42C | 0.323
U12A A41U | 0.388
G36U G45U | 0.441
C16A C29A | 0.417
U24G A37G | 0.659
C11A U28A | 1.04
C11A U28C | 1.1
U7C C38U | 0.929
A37U A42C | 0.304
G17U U19A | 0.361
G17A U21C | 0.294
U19G G33C | 0.426

Variant | self-cleavage
G22U A34G | 0.308
C29G G45A | 0.359
U21C G45A | 0.436
G4A A40C | 0.359
C20U G31U | 0.718
A42C C43G | 0.271
G31U C43A | 0.376
G5U A41U | 0.332
C29A G39C | 0.326
A6U U19G | 0.395
G4C G22A | 0.297
C2A C30G | 0.333
C15A G36C | 0.379
G27U G36A | 0.303
G35A | 0.798
C3G C38G | 0.279
G35C G45A | 0.385
C20G A42G | 0.324
C15U A40G | 0.269
A26G A37G | 0.424
G27C C29U | 0.576

Variant | self-cleavage
C30A A42G | 0.246
G18C G35U | 0.399
U21A C29U | 0.558
U19C U24C | 0.682
C30G G45U | 0.377
A1C G10C | 0.397
G10A C43A | 0.295
U19C A42G | 0.279
G10U A34U | 0.864
U7A G33A | 1.45
U19G A23C | 0.346
U19G A23G | 0.3
A6U C16A | 0.471
C15U A41G | 0.355
C30U A41G | 0.35
U28A A40C | 0.352
C15A A34G | 0.96
A6G G35A | 0.302
A6G G35C | 0.684
U13A G25C | 0.327
U9C C43U | 0.38

Variant | self-cleavage
G17C G36A | 0.361
G22C | 0.336
G17U U28C | 0.495
C30A A41U | 0.377
C3U G4C | 0.3
A23U C43A | 0.377
G5C A23C | 0.326
G8A A23G | 0.325
G10A A40C | 0.676
C2U G39A | 0.376
U14C G18A | 0.409
A6U A34G | 0.786
G31U A37U | 0.847
C20U G25C | 0.273
C20A C43G | 0.25
G27U A44G | 0.69
A37G C43A | 0.332
A37U A41G | 0.406
U14C C43G | 0.309
C15A U32G | 0.769
